Test [1] addresses T1, HLA-DR15 (HLA-DRB1*15:01) (human).
T1 construct: mature; purified from homozygous EBV-transformed lymphoblastoid cells with antibody L243
Nature of the test: competition ELISA vs biotin-A3 152-166.

The target of test [2] is T2, HLA-DP401 (HLA-DPB1*04:01) (human, UniProt P20036 29-222).
T2 construct: mature; purified from homozygous EBV-transformed lymphoblastoid cells with antibody B7/21
The test can be described thus: competition ELISA vs biotin-Oxy 271-287. In general terms: In an ELISA, binding on a coated surface is turned into a signal by an enzyme label.

Test [3] has as its target T3, HLA-DP402 (HLA-DPB1*04:02) (human, UniProt P20036 29-222).
T3 construct: mature; purified from homozygous EBV-transformed lymphoblastoid cells with antibody B7/21
The test can be described thus: competition ELISA vs biotin-Oxy 271-287.

Test [4] has as its target T4, HLA-DRB4 (HLA-DRB4*01:01) (human).
T4 construct: mature; purified from homozygous EBV-transformed lymphoblastoid cells with antibody L243
The test can be described thus: competition ELISA vs biotin-E2/E168.

The target in test [5] is T5, HLA-DR1 (HLA-DRB1*01:01) (human).
T5 construct: mature; class II HLA molecule purified from homozygous EBV-transformed lymphoblastoid cells with antibody L243
Nature of the test: competition ELISA vs biotin-HA 306-318.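 Also: HLA and competitor incubated 24 to 72 h, maximal signal taken from wells lacking competitor, background from wells lacking HLA molecule.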

Test [6] addresses T6, HLA-DR4 (HLA-DRB1*04:01) (human).
T6 construct: mature; purified from homozygous EBV-transformed lymphoblastoid cells with antibody L243
Nature of the test: competition ELISA vs biotin-HA 306-318.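 Also: HLA and competitor incubated 24 to 72 h, maximal signal taken from wells lacking competitor, background from wells lacking HLA molecule.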

Test [7] has as its target T7, HLA-DRB5 (HLA-DRB5*01:01) (human).
T7 construct: mature; purified from homozygous EBV-transformed lymphoblastoid cells with antibody L243
The test can be described thus: competition ELISA vs biotin-HA 306-318.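 Also: HLA and competitor incubated 24 to 72 h, maximal signal taken from wells lacking competitor, background from wells lacking HLA molecule.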

The target of test [8] is T8, HLA-DRB3 (HLA-DRB3*01:01) (human).
T8 construct: mature; purified from homozygous EBV-transformed lymphoblastoid cells with antibody L243
The test can be described thus: competition ELISA vs biotin-LOL 191-210.

For test [9], the target named is T9, HLA-DR7 (HLA-DRB1*07:01) (human).
T9 construct: mature; purified from homozygous EBV-transformed lymphoblastoid cells with antibody L243
The test can be described thus: competition ELISA vs biotin-YKL.

Test [10] deals with T9, HLA-DR7 (HLA-DRB1*07:01). The test can be described thus: competition ELISA vs biotin-YKL. This is another data set of the same source.
Test [11] deals with T3, HLA-DP402 (HLA-DPB1*04:02). The test can be described thus: competition ELISA vs biotin-Oxy 271-287. This is another data set of the same source.
In test [12] the target is T8, HLA-DRB3 (HLA-DRB3*01:01). The test can be described thus: competition ELISA vs biotin-LOL 191-210. This is another data set of the same source.
For test [13], the target named is T10, HLA-DR3 (HLA-DRB1*03:01) (human).
T10 construct: mature; purified from homozygous EBV-transformed lymphoblastoid cells with antibody L243
The test can be described thus: competition ELISA vs biotin-MT 2-16.

Test [14] addresses T5, HLA-DR1 (HLA-DRB1*01:01). The test can be described thus: competition ELISA vs biotin-HA 306-318.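 Also: HLA and competitor incubated 24 to 72 h, maximal signal taken from wells lacking competitor, background from wells lacking HLA molecule.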 This is another data set of the same source.
The target in test [15] is T6, HLA-DR4 (HLA-DRB1*04:01). The test can be described thus: competition ELISA vs biotin-HA 306-318. This is another data set of the same source.
Test [16] addresses T11, HLA-DR11 (HLA-DRB1*11:01) (human).
T11 construct: mature; purified from homozygous EBV-transformed lymphoblastoid cells with antibody L243
Nature of the test: competition ELISA vs biotin-HA 306-318.

Test [17] deals with T1, HLA-DR15 (HLA-DRB1*15:01). Nature of the test: competition ELISA vs biotin-A3 152-166. The source holds these as a separate data set.
In test [18] the target is T12, HLA-DR13 (HLA-DRB1*13:01) (human).
T12 construct: mature; purified from homozygous EBV-transformed lymphoblastoid cells with antibody L243
The test can be described thus: competition ELISA vs biotin-B1 21-36.

In test [19] the target is T11, HLA-DR11 (HLA-DRB1*11:01). The test can be described thus: competition ELISA vs biotin-HA 306-318. The source holds these as a separate data set.
In test [20] the target is T10, HLA-DR3 (HLA-DRB1*03:01). Nature of the test: competition ELISA vs biotin-MT 2-16. The source holds these as a separate data set.
In test [21] the target is T7, HLA-DRB5 (HLA-DRB5*01:01). The test can be described thus: competition ELISA vs biotin-HA 306-318. This is another data set of the same source.
Test [22] deals with T2, HLA-DP401 (HLA-DPB1*04:01). The test can be described thus: competition ELISA vs biotin-Oxy 271-287. This is another data set of the same source.
Test [23] addresses T4, HLA-DRB4 (HLA-DRB4*01:01). The test can be described thus: competition ELISA vs biotin-E2/E168. The source holds these as a separate data set.
Test [24] addresses T12, HLA-DR13 (HLA-DRB1*13:01). The test can be described thus: competition ELISA vs biotin-B1 21-36. This is another data set of the same source.

Where two headings read alike, the source gives them in different places. No end group written: not given here.

With PNLCSEYVKDIYAYL-NH2 [CCNB1 164-178], the relative affinity in test [1] turned out to be 28; in [2], 274; in test [3] it was 625; in test [4], 40; with HLA-DR1 (HLA-DRB1*01:01) [5], 2830; in the test with HLA-DR4 (HLA-DRB1*04:01) [6] it was 527. Further, the values for the relative affinity (in [7]; in test [8]; with HLA-DR7 (HLA-DRB1*07:01) [9]) were 500, 53 and 73, respectively.

Regarding NSALVQDLAKAVAKV-NH2 [CCNB1 419-433], the relative affinity was determined as 183 with HLA-DR7 (HLA-DRB1*07:01) [10]; 148 in test [11]; 7 in [12]; 1 in the test with HLA-DR3 (HLA-DRB1*03:01) [13]; 155 in the test with HLA-DR1 (HLA-DRB1*01:01) [14]; 333 in the test with HLA-DR4 (HLA-DRB1*04:01) [15]. In addition, the relative affinity was found to be 3 in test [16], 7 in test [17] and 37 in [18].

In the case of FAFVTDNTYTKHQIR-NH2 [CCNB1 269-283], the relative affinity in test [1] turned out to be 17; in the test with HLA-DR1 (HLA-DRB1*01:01) [5] it was 1340; with HLA-DR4 (HLA-DRB1*04:01) [6], 0.4; in test [7] it was 42; in test [19], 2190; in [8], 34. For the same molecule, the relative affinity with HLA-DR3 (HLA-DRB1*03:01) [20] was 0.1; in the test with HLA-DR7 (HLA-DRB1*07:01) [9], 577.

On to EPILVDTASPSPMET-NH2 [CCNB1 118-132], for which the relative affinity came out at 12 in [12]; 0.4 in the test with HLA-DR3 (HLA-DRB1*03:01) [13]; 6360 in the test with HLA-DR1 (HLA-DRB1*01:01) [14]; 0.3 with HLA-DR4 (HLA-DRB1*04:01) [15]; 400 in [17].

Turning to HQIRQMEMKILRALN-NH2 [CCNB1 280-294], the relative affinity with HLA-DR7 (HLA-DRB1*07:01) [10] worked out at 462; in [12] it was 53; with HLA-DR3 (HLA-DRB1*03:01) [13], 0.2; in the test with HLA-DR1 (HLA-DRB1*01:01) [14], 1220; with HLA-DR4 (HLA-DRB1*04:01) [15], 0.4; in [21], 4. The relative affinity in [16] is 2000; in test [17], 0.3.

With EKLSPEPILVDTASP-NH2 [CCNB1 113-127], the relative affinity amounted to 72 in test [2]; 71 in test [3]; 231 in test [4]; 6000 in the test with HLA-DR1 (HLA-DRB1*01:01) [5]; 55 with HLA-DR4 (HLA-DRB1*04:01) [6]; 151 in test [8]. The same molecule yielded a relative affinity with HLA-DR3 (HLA-DRB1*03:01) [20] of 6.

As to AKYLMELTMLDYDMV-NH2 [CCNB1 323-337], the relative affinity with HLA-DR7 (HLA-DRB1*07:01) [10] is 8; in test [22], 1; in test [11], 6; in test [12], 41; in the test with HLA-DR3 (HLA-DRB1*03:01) [13], 2; with HLA-DR1 (HLA-DRB1*01:01) [14], 4. Besides, the relative affinity was 0.2 with HLA-DR4 (HLA-DRB1*04:01) [15]; 2 in test [21]; 0.4 in test [16]; 2 in test [17]; 7 in test [23].

In the case of REVTGNMRAILIDWL-NH2 [CCNB1 195-209], the relative affinity in test [1] amounted to 30; in [2], 725; in test [3] it was 791; in [24], 45; in [4] it was 23; in the test with HLA-DR1 (HLA-DRB1*01:01) [5], 55. The relative affinity came out at 260 with HLA-DR4 (HLA-DRB1*04:01) [6]; 1410 in test [7]; 1180 in [19]; 20 in test [8]; 1 with HLA-DR3 (HLA-DRB1*03:01) [20].

For the molecule QAFSDVILAVNDVDA-NH2 [CCNB1 144-158], the relative affinity in test [1] stood at 46; in [2], 51; in the test with HLA-DR1 (HLA-DRB1*01:01) [5] it was 1730; in the test with HLA-DR4 (HLA-DRB1*04:01) [6], 12; in [8] it was 18; with HLA-DR3 (HLA-DRB1*03:01) [20] it was 8.

On to MEMKILRALNFGLGR-NH2 [CCNB1 285-299], for which the relative affinity with HLA-DR7 (HLA-DRB1*07:01) [10] came out at 0.1; in test [22], 30; in [11], 4; in the test with HLA-DR3 (HLA-DRB1*03:01) [13], 51; with HLA-DR1 (HLA-DRB1*01:01) [14], 1; with HLA-DR4 (HLA-DRB1*04:01) [15] it was 7. Moreover, the relative affinity in test [21] came out at 2; in [16], 4; in test [17], 0.03; in test [23] it was 18; in [18] it was 1.

Regarding PQLNSALVQDLAKAV-NH2 [CCNB1 416-430], the relative affinity was determined as 47 in the test with HLA-DR7 (HLA-DRB1*07:01) [10]; 59 in [22]; 74 in test [11]; 3 in [12]; 9 with HLA-DR3 (HLA-DRB1*03:01) [13]; 693 with HLA-DR1 (HLA-DRB1*01:01) [14]. For the same molecule, the relative affinity with HLA-DR4 (HLA-DRB1*04:01) [15] was found to be 54; in test [21], 548; in test [16], 123; in test [17], 71; in [23], 1800.

Turning to ESLLPVMQHLAKNVV-NH2 [CCNB1 374-388], the relative affinity amounted to 3 with HLA-DR7 (HLA-DRB1*07:01) [10]; 764 in the test with HLA-DR3 (HLA-DRB1*03:01) [13]; 837 in the test with HLA-DR1 (HLA-DRB1*01:01) [14]; 91 in the test with HLA-DR4 (HLA-DRB1*04:01) [15]; 91 in test [21]; 0.3 in test [16]. Besides, the relative affinity in test [17] was determined as 19; in [23] it was 424; in [18], 6.

LSYTEESLLPVMQHL-NH2 [CCNB1 369-383]: the relative affinity in [1] stood at 350; in [2], 4; in test [3] it was 1; with HLA-DR1 (HLA-DRB1*01:01) [5], 212; with HLA-DR4 (HLA-DRB1*04:01) [6] it was 58; in test [7], 1380. For the same molecule, the relative affinity was 45 in test [19], 72 in test [8] and 91 in the test with HLA-DR7 (HLA-DRB1*07:01) [9].

Regarding AKISTLPQLNSALVQ-NH2 [CCNB1 410-424], the relative affinity was found to be 1120 in [11]; 89 in the test with HLA-DR1 (HLA-DRB1*01:01) [14]; 408 with HLA-DR4 (HLA-DRB1*04:01) [15]; 1 in [16]; 12 in test [17]; 966 in test [23]. Moreover, the relative affinity in [18] came to 94.
